# US7176279 (PALATIN TECHNOLOGIES, dated 2007)
# B1: Ac-Nle-cyclo(-Asp-His-D-Phe-Lys-Trp-Lys)-OH (peptide)
# peptide: XDHFKWK
# modifications: N-terminal acetyl; Nle at 1 (X); D-Phe at 4; cyclo (lactam) between side chains of Asp 2 and Lys 7; C-terminal free acid (-OH)
# notes: Synthetic cyclic heptapeptide; X = norleucine; also called Ac-Nle-cyclo( -Asp-His-D-Phe-Lys-Trp-Lsy)-OH
# Tests used:
# [1] = target: T1, hMC5-R (human, UniProt P33032 1-325); experiment: competition with 125I-NDP-MSH, HEK 293 hMC5-R membranes, 1 µM peptide
# T1 construct: whole, on cells; Assayed as membranes prepared from transfected HEK 293 cells; also called MC5 receptor; melanocortin-5 receptor
# T1 sequence (P33032 whole entry): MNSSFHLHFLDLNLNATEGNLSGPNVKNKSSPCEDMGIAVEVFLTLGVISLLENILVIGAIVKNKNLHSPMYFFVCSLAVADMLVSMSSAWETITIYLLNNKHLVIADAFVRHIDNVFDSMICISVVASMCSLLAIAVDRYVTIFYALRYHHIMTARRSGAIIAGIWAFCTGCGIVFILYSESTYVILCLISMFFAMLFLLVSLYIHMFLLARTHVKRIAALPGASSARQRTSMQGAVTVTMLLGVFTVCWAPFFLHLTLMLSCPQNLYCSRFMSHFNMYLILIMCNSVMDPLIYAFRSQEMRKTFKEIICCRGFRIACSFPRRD
# [2] = target: T2, hMC4-R (human, UniProt P32245 1-332); experiment: competition with 125I-NDP-MSH, HEK 293 hMC4-R membranes, 1 µM peptide
# T2 construct: whole, on cells; cAMP assay on whole transfected HEK-293 cells; also called MC4 receptor; melanocortin-4 receptor
# T2 sequence (P32245 whole entry): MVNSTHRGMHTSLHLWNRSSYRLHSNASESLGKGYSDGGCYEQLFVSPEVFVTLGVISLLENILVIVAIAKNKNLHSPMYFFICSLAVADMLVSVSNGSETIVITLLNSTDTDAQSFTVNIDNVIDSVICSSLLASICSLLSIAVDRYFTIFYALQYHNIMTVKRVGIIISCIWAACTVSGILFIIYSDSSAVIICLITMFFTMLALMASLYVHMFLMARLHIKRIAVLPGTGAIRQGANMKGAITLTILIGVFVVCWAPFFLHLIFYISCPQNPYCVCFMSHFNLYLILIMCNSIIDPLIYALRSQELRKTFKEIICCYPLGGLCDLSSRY
# [3] = target: T3, MC1-R (B16-F1 mouse melanoma cells) (mouse, UniProt Q01727 1-315); experiment: competition with 125I-NDP-MSH, B16-F1 membranes, 1 µM peptide
# T3 construct: whole, on cells; Assayed as membranes prepared from B16-F1 mouse melanoma cells; also called MC1 receptor; melanocortin-1 receptor
# T3 sequence (Q01727 whole entry): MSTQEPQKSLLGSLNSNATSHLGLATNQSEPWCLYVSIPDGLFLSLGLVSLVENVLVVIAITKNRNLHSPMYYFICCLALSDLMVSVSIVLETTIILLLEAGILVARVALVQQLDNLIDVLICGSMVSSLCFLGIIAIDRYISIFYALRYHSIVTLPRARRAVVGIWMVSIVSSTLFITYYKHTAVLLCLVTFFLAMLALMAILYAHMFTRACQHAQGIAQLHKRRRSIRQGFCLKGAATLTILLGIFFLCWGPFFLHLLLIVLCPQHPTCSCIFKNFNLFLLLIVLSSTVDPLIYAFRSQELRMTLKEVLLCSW
# [4] = target: T4, hMC3-R (human, UniProt P41968 1-323); experiment: titrated competitive binding assay on receptor membranes
# T4 construct: whole, on cells; Assayed as membranes prepared from transfected HEK 293 cells; also called MC3 receptor; melanocortin-3 receptor
# T4 sequence (P41968 whole entry): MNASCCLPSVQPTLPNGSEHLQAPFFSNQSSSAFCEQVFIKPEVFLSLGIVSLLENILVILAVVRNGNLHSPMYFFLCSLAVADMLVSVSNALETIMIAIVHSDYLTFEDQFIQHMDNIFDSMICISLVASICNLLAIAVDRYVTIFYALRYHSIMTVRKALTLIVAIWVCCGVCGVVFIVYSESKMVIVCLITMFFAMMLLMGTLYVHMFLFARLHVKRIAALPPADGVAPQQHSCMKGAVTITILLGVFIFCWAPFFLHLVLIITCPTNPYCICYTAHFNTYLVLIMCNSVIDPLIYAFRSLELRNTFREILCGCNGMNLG
# [5] = target: T2, hMC4-R; experiment: as above
# [6] = target: T1, hMC5-R; experiment: as above
# [7] = target: T3, MC1-R (B16-F1 mouse melanoma cells); experiment: as above
# [8] = target: T4, hMC3-R; experiment: competition with 125I-NDP-MSH, HEK 293 hMC3-R membranes, 1 µM peptide
binder,measurement,setting,value
B1,Percent Inhibition At 1 µM concentration,[1],17%
same,Percent Inhibition At 1 µM concentration,[2],46%
same,Percent Inhibition At 1 µM concentration,[3],86%
same,Ki,[4],10.8 µM
same,Ki,[5],742 µM
same,Ki,[6],2.53 µM
same,Ki,[7],0.0099 µM
same,Percent Inhibition At 1 µM concentration,[8],8%
